Data published in paper PMC3210727 (Science (New York, N.Y.), 2011).

What was measured:
Experiment in all cases: flow cytometry on cells
[1] = molecular target: surface-expressed H3 HA from A/Hong Kong/1/1968, uncleaved precursor (HA0) (Influenza A virus (strain A/Hong …, UniProt Q91MA7))
[2] = molecular target: surface-expressed H3 HA from A/Hong Kong/1/1968, cleaved (HA) (Influenza A virus (strain A/Hong …, UniProt Q91MA7))
[3] = molecular target: surface-expressed H3 HA from A/Hong Kong/24/1985, cleaved (HA) (Influenza A virus A/Hong Kong/24/1985 …, UniProt Q38TK5, strain)
[4] = molecular target: surface-expressed H7 HA, uncleaved (HA0) (Influenza A virus H7, strain not named; …, UniProt Q6VMK1)
[5] = molecular target: surface-expressed H7 HA, cleaved (HA) (Influenza A virus H7, strain not named; …, UniProt Q6VMK1)

Measured: binding result

B1: human monoclonal antibody CR8020 (antibody, V domains shown)
VH: QVQLQQSGAEVKTPGASVKVSCKASGYTFTSFGVSWIRQAPGQGLEWIGWISAYNGDTYYAQKFQARVTMTTDTSTTTAYMEMRSLRSDDTAVYYCAREPPLFYSSWSLDNWGQGTLVTVSS
VL: EIVMTQSPGTLSLSPGERATLSCRASQSVSMNYLAWFQQKPGQAPRLLIYGASRRATGIPDRISGSGSGTDFTLTISRLEPADFAVYYCQQYGTSPRTFGQGAKVEIK
binds: all assays above
